Assay results: US20120214744A1 (L UNIVERSITE PARIS DESCARTES, published 2012)
Where “and” joins values, the source holds several entries; their conditions need not be identical. Equal values may be shown once.

Tests used:
[1] = target: gD-tagged wild-type ErbB2 (human) (UniProt P04626); assay: cell-based or functional assay
endogenous EGFR = target: T1, endogenous EGFR (human, UniProt P00533 25-1210); assay: GST pull-down from HBMEC lysates
T1 construct: whole, on cells; Endogenous receptor of HBMECs, from lysates; also called endogenous EGF receptors
Procedure: (§1) Clarified lysates were incubated with GST fusion proteins (20-30 mg) bound to glutathione-Sepharose beads for 2 h at 4° C. Beads were washed three times with lysis buffer, and bound proteins were eluted in Laemmli sample buffer and separated by SDS-PAGE for analysis by western blotting.

[2] = target: T2, gD-tagged wild-type ErbB2 (human, UniProt P04626 23-1255); assay: GST pull-down from HBMEC lysates, anti-gD western blot
T2 construct: whole, on cells; Expressed in HBMECs (human endothelial cells); also called gD-ErbB2-WT; gD-ErbB2 WT
Procedure: as §1

Row | binding result (endogenous EGFR) | binding result [2] | Molecule | ErbB2-induced cell proliferation of HBMECs [1]
1 | – | – | VSV-g-tagged ezrin FERM domain (from UniProt P15311 1-295) | 85 % reduction and 70 % reduction
2 | no binding | no binding | GST fused with the carboxy-terminal domain of ezrin (other, also called GST-Ezrin-CT; C-terminus of ezrin; not shown: glutathione S-transferase (GST) tag) REEKHQKQLERQQLETEKKRRETVEREKEQMMREKEELMLRLQDYEEKTKKAERELSEQIQRALQLEEERKRAQEEAERLEADRMAALRAKEELERQAVDQIKSQEQLAAELAEYTAKIALLEEARRRKEDEVEEWQHRAKEAQDDLVKTKEELHLVMTAPPPPPPPVYEPVSYHVQESLQDEGAEPTGYSAELSSEGIRDDRNEEKRITEAEKNERVQRQLLTLSSELSQARDENKRTHNDIIHNENMRQGRDKYKTLRQIRQGNTKQRIDEFEAL | –
